The source of these data is patent US20240352121A1, “LAIR-1 AGONISTIC ANTIBODIES AND METHODS OF USE THEREOF” (NEXTCURE, INC., priority 2023, published 2024).

The subject of data set [1] is AML patient LSCs engrafted in mice. Description: AML patient-derived xenograft (PDX) model. As to conditions: 5 mg/kg i.p. weekly, 4 doses; at any time point. In kind it is in vivo, NSG-SGM3 mice. How it is done: (§1) Newborn (3-5 day from birth) NSG-SGM3 pups were sub-lethally (200 cGy) irradiated. 12 hours post-irradiation, mice were intra-hepatically transplanted with 0.2e6 AML bone-marrow cells or normal CD34 HSCs from cryopreserved stocks. 6 weeks post-transplant, blood was collected to assess engraftment of progenitor cells via flow cytometry, staining for human CD45, human CD33, and human CD3. Once engraftment of human cells was confirmed, 5 mg/kg of anti-human LAIR-1 mAb or isotype control was intraperitoneally injected weekly for a total of 4 doses. At the indicated timepoints post-treatment, blood was collected to assess the proliferation of AML cells as a measure of LAIR-1 mAb anti-leukemic activity as compared to isotype control. For standard-of-care combination studies, PDX mice were treated with 20 mg/kg venetoclax 5 days on and 2 days off for 5 weeks, and X 1.5 mg/kf-tiw azacytidine upfront one week only. LAIR-1 mAb was treated i.p. once per week for 5 weeks. Blood was harvested as described above to measure leukemic growth and spleens were harvested at endpoint and weighed for assessment of splenomegaly. For secondary transplant studies, mice were engrafted as above. […] Leukemia progression in recipient mice was measured by flow cytometry by quantifying the percent of human CD33^+ human CD45^+ cells in peripheral blood at weeks 4, 6, and 10 weeks post-transplant.

The test system of data set [2] is LSCs within the bone-marrow of PDX donor animals. Briefly: PDX secondary transplant model. It is filed as in vivo, NSG-SGM3 mice. The note with it: bone-marrow from PDX donors treated for 4 weeks; no further treatment. How it is done: as §1
The test system of a further data set is SHP-1. Description: SHP-1 phosphorylation in primary patient AML blasts (Western blot). In kind it is cell-based, human. Here is the method:
FIGS. 4A-4O show the collagen matrix is vital to LAIR-1 induced AML cell death. (FIGS. 4A-C). Flow cytometry quantification of primary live, dead, or apoptotic total blood leukocytes after ex vivo treatment with 10 μg/mL IgG isotype control (gray) or LAIR-1 mAb (red) in the presence (FIG. 4A) or absence (FIG. 4B) of exogenous collagen, or (FIG. 4C), CD451^Lo SSC^Lo blast cells in the presence of isotype control or LAIR-1 mAb. N=3 technical replicates. […] Each dot represents an individual donor. Red shading highlights surface expression >20000 arbitrary units. Blue shading highlights expression <20000 units. Line represents simple linear regression. […] N=4-7 donors. […] Mean pixel density from Western blotting normalized to isotype control condition and graphed relative to total SHP-1. N=3 technical replicates. […] FIGS. 4M and 4N) 4E-BP1 expression as measured by Lumit assay (FIG. 4M) or cleaved caspase-7 as measured by Western blot (FIG. 4N) of cells treated as shown in FIGS. 4I-4K. […] P values calculated by Student's t test. […]
For assessment of signaling in healthy cells, human monocytes were isolated from PBMCs from two donors using a StemCell monocyte isolation kit (StemCell, Vancouver, BC). […] Data were quantified using FIJI (NIH, MD).
(A western blot detects proteins with antibodies after separation by electrophoresis.)

The test system of data set [3] is AML patient bone-marrow cells (LSCs). Description: Colony forming unit assay, AML patient bone-marrow. It is filed as cell-based, human. The note with it: titrated concentrations, dose-response; vs isotype or vehicle. How it is done:
(§2) Cryopreserved AML bone-marrow cells or healthy donor CD34 cells were thawed and plated in 96 wells plates. Cells were engaged with the indicated concentrations of LAIR-1 mAb or isotype control for 30 min at room temperature. Subsequently, cells were diluted in IMDM with 2% FBS and mixed with semisolid methylcellulose-based medium (MethoCult H4435 Enriched, StemCell Technologies, Vancouver, Canada) which contains human cytokines (stem cell factor, IL-3, IL-6, EPO, G-CSF, GM-CSF). Then, between 1e4 and 2.5e5 LSCs, or, between 1e3 and 5e3 healthy donor CD34 cells per well were plated on 6-well SmartDishes (StemCell Technologies, Vancouver, Canada). The cell-loaded plates were incubated at 37° C. with 5% CO2 in air and ≥95% humidity. On day 14, colony formation was counted by STEMvision (StemCell Technologies, Vancouver, Canada), an automated and standardized colony counting instrument. The automated results were confirmed and edited manually by the STEMvision Colony Marker software.

Data set [4] deals with bone-marrow cells from healthy control donors. It is filed as cell-based, human. How it is done: as §2
Another data set has as its system MV4-11-Luc cells. Briefly: In-vitro phagocytosis (ADCP) assay, mouse bone marrow macrophages with MV4-11-Luc cells. In kind it is cell-based, human. The note with it: 20 μg/ml, 16 hours. How it is done:
Mouse BMM was generated with 100 ng/ml M-CSF (Cat #416-ML-500) using seed BMM cells at 1e5/well in 24 well plate. Stain was done with Cell trace violet (Thermofisher). Target MV411 cells were labeled with PKH26 (Sigma #PKH26gl-1kt) according to manufacturer's instructions and cocultured with BMM at ratio of 5:1 in presence of 20 μg/ml h11B3 or control antibody for 16 hours. Phagocytosis was analyzed by flow cytometry.

A value given as a limit tells only on which side of the number the result lay.

B1: LAIR-1 mAb: humanized agonist anti-LAIR-1 mAb, IgG1 backbone; h11B3 VL-2 (SEQ ID NO: 16), h11B3 VH-3 (SEQ ID NO: 27) (antibody, V domains shown)
VH: EVQLVESGGGLVQPGGSLKLSCAASGFTFNTNAMYWVRQAPGKGLEWVGRIRSKSSNYATYYAASVKGRFTISRDDSKNTLYLQMNSLKTEDTAVYYCVRGGSGFFAYWGQGTLVTVSS
VL: DIQMTQSPSSLSASLGDRVTITCKASEDIYIRLAWYQQKPGKAPRLLISTATSLETGVPSRFSGSGSGTDYTFTISSLQPEDIATYYCQQYWSTPYTFGGGTRLEIK
modifications: IgG1 constant regions; Synthetic: h11B3 VH-3; Synthetic: h11B3 VL-2
On to B1, for which, in data set [1], the “human CD45 CD33 cells in circulation” value is below 10%. The “disease development in secondary recipient mice” value in data set [2] is given as “developed no disease”. In addition, the “increase of SHP-1 phosphorylation relative to control” value in the data set with SHP-1 (LAIR-1 mAb alone) came out at 25%; in the data set on SHP-1 (cotreatment with LAIR-1 mAb and collagen), 50%. Further, the CFU formation entry in data set [3] is reported as “significantly decreased”; in data set [4] it was “no change”. The ADCP activity entry in the data set on MV4-11-Luc cells is given as “induces ADCP activity”.
